Results published in patent US20240049668A1 (VILMORIN AND CIE, published 2024).

target: T1, Movement Protein of ToBRFV (Tomato Brown Rugose Fruit Virus …, UniProt A0A0S2SZW1 1-266); experiment: cell-based or functional assay
T1 sequence: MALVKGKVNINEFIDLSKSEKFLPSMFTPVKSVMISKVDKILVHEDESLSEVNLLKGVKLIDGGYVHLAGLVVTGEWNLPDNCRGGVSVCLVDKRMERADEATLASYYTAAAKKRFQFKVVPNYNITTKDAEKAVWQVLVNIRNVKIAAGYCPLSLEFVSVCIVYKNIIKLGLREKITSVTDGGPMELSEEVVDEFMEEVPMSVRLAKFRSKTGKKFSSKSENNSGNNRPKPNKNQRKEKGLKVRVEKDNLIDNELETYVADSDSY

Row | Binder | HR when expressed with MP Rugose
1 | TM-2-2 variant pJL 468_L (848 L) (receptor) MAEILLTSVINKSVEIAGNLLIQEGKRLYWLKEDIDWLQREMRHIRSYVDNAKAKEAGGDSRVKNLLKDIQELAGDVEDLLDDFLPKIQQSNKFNYCLKRSSFADEFAMEIEKIKRRVVDIDRIRKTYNIIDTDNNNDDCVLLDRRRLFLHADETEIIGLDDDFNMLQAKLLNQDLHYGVVSIVGMPGLGKTTLAKKLYRLIRDQFECSGLVYVSQQPRASEILLDIAKQIGLTEQKMKENLEDNLRSLLKIKRYVILLDDIWDVEIWDDLKLVLPECDSKVGSRMIITSRNSNVGRYIGGESSLHALQPLESEKSFELFTKKIFNFDDNNSWANASPDLVNIGRNIVGRCGGIPLAIVVTAGMLRARERTEHAWNRVLESMGHKVQDGCAKVLALSYNDLPIASRPCFLYFGLYPEDHEIRAFDLINMWIAEKFIVVNSGNRREAEDLAEDVLNDLVSRNLIQLAKRTYNGRISSCRIHDLLHSLCVDLAKESNFFHTAHDAFGDPGNVARLRRITFYSDNVMIEFFRSNPKLEKLRVLFCFAKDPSIFSHMAYFDFKLLHTLVVVMSQSFQAYVTIPSKFGNMTCLRYLRLEGNICGKLPNSIVKLTRLETIDIDRRSLIQPPSGVWESKHLRHLCYRDYGQACNSCFSISSFYPNIYSLHPNNLQTLMWIPDKFFEPRLLHRLINLRKLGILGVSNSTVKMLSIFSPVLKALEVLKLSFSSDPSEQIKLSSYPHIAKLHLNVNRTMALNSQSFPPNLIKLTLAYFSVDRYILAVLKTFPKLRKLKMFICKYNEEKMDLSGEANGYSFPQLEVLHIHSPNGLSEVTCTDDVSMPKLKKLLLTGFHLRISLSERLKKLSK | < 1 HR scale 0-4
2 | TM-2-2 variant pJL 468_Q (848 Q) (receptor) MAEILLTSVINKSVEIAGNLLIQEGKRLYWLKEDIDWLQREMRHIRSYVDNAKAKEAGGDSRVKNLLKDIQELAGDVEDLLDDFLPKIQQSNKFNYCLKRSSFADEFAMEIEKIKRRVVDIDRIRKTYNIIDTDNNNDDCVLLDRRRLFLHADETEIIGLDDDFNMLQAKLLNQDLHYGVVSIVGMPGLGKTTLAKKLYRLIRDQFECSGLVYVSQQPRASEILLDIAKQIGLTEQKMKENLEDNLRSLLKIKRYVILLDDIWDVEIWDDLKLVLPECDSKVGSRMIITSRNSNVGRYIGGESSLHALQPLESEKSFELFTKKIFNFDDNNSWANASPDLVNIGRNIVGRCGGIPLAIVVTAGMLRARERTEHAWNRVLESMGHKVQDGCAKVLALSYNDLPIASRPCFLYFGLYPEDHEIRAFDLINMWIAEKFIVVNSGNRREAEDLAEDVLNDLVSRNLIQLAKRTYNGRISSCRIHDLLHSLCVDLAKESNFFHTAHDAFGDPGNVARLRRITFYSDNVMIEFFRSNPKLEKLRVLFCFAKDPSIFSHMAYFDFKLLHTLVVVMSQSFQAYVTIPSKFGNMTCLRYLRLEGNICGKLPNSIVKLTRLETIDIDRRSLIQPPSGVWESKHLRHLCYRDYGQACNSCFSISSFYPNIYSLHPNNLQTLMWIPDKFFEPRLLHRLINLRKLGILGVSNSTVKMLSIFSPVLKALEVLKLSFSSDPSEQIKLSSYPHIAKLHLNVNRTMALNSQSFPPNLIKLTLAYFSVDRYILAVLKTFPKLRKLKMFICKYNEEKMDLSGEANGYSFPQLEVLHIHSPNGLSEVTCTDDVSMPKLKKLLLTGFHQRISLSERLKKLSK | < 1 HR scale 0-4
3 | TM-2-2 variant pJL 468_M (848 M) (receptor) MAEILLTSVINKSVEIAGNLLIQEGKRLYWLKEDIDWLQREMRHIRSYVDNAKAKEAGGDSRVKNLLKDIQELAGDVEDLLDDFLPKIQQSNKFNYCLKRSSFADEFAMEIEKIKRRVVDIDRIRKTYNIIDTDNNNDDCVLLDRRRLFLHADETEIIGLDDDFNMLQAKLLNQDLHYGVVSIVGMPGLGKTTLAKKLYRLIRDQFECSGLVYVSQQPRASEILLDIAKQIGLTEQKMKENLEDNLRSLLKIKRYVILLDDIWDVEIWDDLKLVLPECDSKVGSRMIITSRNSNVGRYIGGESSLHALQPLESEKSFELFTKKIFNFDDNNSWANASPDLVNIGRNIVGRCGGIPLAIVVTAGMLRARERTEHAWNRVLESMGHKVQDGCAKVLALSYNDLPIASRPCFLYFGLYPEDHEIRAFDLINMWIAEKFIVVNSGNRREAEDLAEDVLNDLVSRNLIQLAKRTYNGRISSCRIHDLLHSLCVDLAKESNFFHTAHDAFGDPGNVARLRRITFYSDNVMIEFFRSNPKLEKLRVLFCFAKDPSIFSHMAYFDFKLLHTLVVVMSQSFQAYVTIPSKFGNMTCLRYLRLEGNICGKLPNSIVKLTRLETIDIDRRSLIQPPSGVWESKHLRHLCYRDYGQACNSCFSISSFYPNIYSLHPNNLQTLMWIPDKFFEPRLLHRLINLRKLGILGVSNSTVKMLSIFSPVLKALEVLKLSFSSDPSEQIKLSSYPHIAKLHLNVNRTMALNSQSFPPNLIKLTLAYFSVDRYILAVLKTFPKLRKLKMFICKYNEEKMDLSGEANGYSFPQLEVLHIHSPNGLSEVTCTDDVSMPKLKKLLLTGFHMRISLSERLKKLSK | < 1 HR scale 0-4
4 | TM-2-2 variant pJL 468_P (848 P) (receptor) MAEILLTSVINKSVEIAGNLLIQEGKRLYWLKEDIDWLQREMRHIRSYVDNAKAKEAGGDSRVKNLLKDIQELAGDVEDLLDDFLPKIQQSNKFNYCLKRSSFADEFAMEIEKIKRRVVDIDRIRKTYNIIDTDNNNDDCVLLDRRRLFLHADETEIIGLDDDFNMLQAKLLNQDLHYGVVSIVGMPGLGKTTLAKKLYRLIRDQFECSGLVYVSQQPRASEILLDIAKQIGLTEQKMKENLEDNLRSLLKIKRYVILLDDIWDVEIWDDLKLVLPECDSKVGSRMIITSRNSNVGRYIGGESSLHALQPLESEKSFELFTKKIFNFDDNNSWANASPDLVNIGRNIVGRCGGIPLAIVVTAGMLRARERTEHAWNRVLESMGHKVQDGCAKVLALSYNDLPIASRPCFLYFGLYPEDHEIRAFDLINMWIAEKFIVVNSGNRREAEDLAEDVLNDLVSRNLIQLAKRTYNGRISSCRIHDLLHSLCVDLAKESNFFHTAHDAFGDPGNVARLRRITFYSDNVMIEFFRSNPKLEKLRVLFCFAKDPSIFSHMAYFDFKLLHTLVVVMSQSFQAYVTIPSKFGNMTCLRYLRLEGNICGKLPNSIVKLTRLETIDIDRRSLIQPPSGVWESKHLRHLCYRDYGQACNSCFSISSFYPNIYSLHPNNLQTLMWIPDKFFEPRLLHRLINLRKLGILGVSNSTVKMLSIFSPVLKALEVLKLSFSSDPSEQIKLSSYPHIAKLHLNVNRTMALNSQSFPPNLIKLTLAYFSVDRYILAVLKTFPKLRKLKMFICKYNEEKMDLSGEANGYSFPQLEVLHIHSPNGLSEVTCTDDVSMPKLKKLLLTGFHPRISLSERLKKLSK | < 1 HR scale 0-4
5 | TM-2-2 variant pJL 468_N (848 N) (receptor) MAEILLTSVINKSVEIAGNLLIQEGKRLYWLKEDIDWLQREMRHIRSYVDNAKAKEAGGDSRVKNLLKDIQELAGDVEDLLDDFLPKIQQSNKFNYCLKRSSFADEFAMEIEKIKRRVVDIDRIRKTYNIIDTDNNNDDCVLLDRRRLFLHADETEIIGLDDDFNMLQAKLLNQDLHYGVVSIVGMPGLGKTTLAKKLYRLIRDQFECSGLVYVSQQPRASEILLDIAKQIGLTEQKMKENLEDNLRSLLKIKRYVILLDDIWDVEIWDDLKLVLPECDSKVGSRMIITSRNSNVGRYIGGESSLHALQPLESEKSFELFTKKIFNFDDNNSWANASPDLVNIGRNIVGRCGGIPLAIVVTAGMLRARERTEHAWNRVLESMGHKVQDGCAKVLALSYNDLPIASRPCFLYFGLYPEDHEIRAFDLINMWIAEKFIVVNSGNRREAEDLAEDVLNDLVSRNLIQLAKRTYNGRISSCRIHDLLHSLCVDLAKESNFFHTAHDAFGDPGNVARLRRITFYSDNVMIEFFRSNPKLEKLRVLFCFAKDPSIFSHMAYFDFKLLHTLVVVMSQSFQAYVTIPSKFGNMTCLRYLRLEGNICGKLPNSIVKLTRLETIDIDRRSLIQPPSGVWESKHLRHLCYRDYGQACNSCFSISSFYPNIYSLHPNNLQTLMWIPDKFFEPRLLHRLINLRKLGILGVSNSTVKMLSIFSPVLKALEVLKLSFSSDPSEQIKLSSYPHIAKLHLNVNRTMALNSQSFPPNLIKLTLAYFSVDRYILAVLKTFPKLRKLKMFICKYNEEKMDLSGEANGYSFPQLEVLHIHSPNGLSEVTCTDDVSMPKLKKLLLTGFHNRISLSERLKKLSK | < 1 HR scale 0-4
6 | TM-2-2 variant pJL 468_R (848 R) (receptor) MAEILLTSVINKSVEIAGNLLIQEGKRLYWLKEDIDWLQREMRHIRSYVDNAKAKEAGGDSRVKNLLKDIQELAGDVEDLLDDFLPKIQQSNKFNYCLKRSSFADEFAMEIEKIKRRVVDIDRIRKTYNIIDTDNNNDDCVLLDRRRLFLHADETEIIGLDDDFNMLQAKLLNQDLHYGVVSIVGMPGLGKTTLAKKLYRLIRDQFECSGLVYVSQQPRASEILLDIAKQIGLTEQKMKENLEDNLRSLLKIKRYVILLDDIWDVEIWDDLKLVLPECDSKVGSRMIITSRNSNVGRYIGGESSLHALQPLESEKSFELFTKKIFNFDDNNSWANASPDLVNIGRNIVGRCGGIPLAIVVTAGMLRARERTEHAWNRVLESMGHKVQDGCAKVLALSYNDLPIASRPCFLYFGLYPEDHEIRAFDLINMWIAEKFIVVNSGNRREAEDLAEDVLNDLVSRNLIQLAKRTYNGRISSCRIHDLLHSLCVDLAKESNFFHTAHDAFGDPGNVARLRRITFYSDNVMIEFFRSNPKLEKLRVLFCFAKDPSIFSHMAYFDFKLLHTLVVVMSQSFQAYVTIPSKFGNMTCLRYLRLEGNICGKLPNSIVKLTRLETIDIDRRSLIQPPSGVWESKHLRHLCYRDYGQACNSCFSISSFYPNIYSLHPNNLQTLMWIPDKFFEPRLLHRLINLRKLGILGVSNSTVKMLSIFSPVLKALEVLKLSFSSDPSEQIKLSSYPHIAKLHLNVNRTMALNSQSFPPNLIKLTLAYFSVDRYILAVLKTFPKLRKLKMFICKYNEEKMDLSGEANGYSFPQLEVLHIHSPNGLSEVTCTDDVSMPKLKKLLLTGFHRRISLSERLKKLSK | 4 HR scale 0-4
